Test results taken from paper PMC6791878, “Evaluation of integrin αvβ6 cystine knot PET tracers to detect cancer and idiopathic pulmonary fibrosis” (Nature Communications, 2019).
“And” between values parts separate entries of the source, which are not always exact repeats. Equal values may be shown once. Read-outs that look alike come from different tables or passages of the source.

Tests used:
[1] = system: pancreatic, cervical and lung cancer
Description: The administered dose was 55.5–96.2MBq (1.5–2.6 mCi). The scan (6 bed positions, 2 min bed^−1) covered an area that included the top of the skull to the middle of the femur. OSEM was applied for reconstruction. […] The CT scan (140 kV, 35 mA, pitch of 1:1, layer of 5 mm thickness; layer spacing of 3 mm, 512*512 matrix, field of view of 70 cm) also covered the top of the skull to the middle of the femur. […] Immediately upon completion of the first scan, the second whole-body static PET data was acquired. Sequentially, multiple whole-body static PET scans were acquired, one by one, from 0 to 75 min.
Upon co-registration of the PET and CT images, the CT images were used to determine regions of interest for the organs or tissues reported in the manuscript. These ROIs were applied to the PET images of the brain, pituitary gland, breast, lower and upper large intestine, small intestine, stomach, pancreas, heart wall, liver, lung, muscle, red marrow, bone, skin, and thyroid gland. For high uptake organs such as the kidneys, bladder and for the whole body, threshold-based segmentation of PET images were used to determine a close-fitting ROI around the entire organ or whole body. In order to determine accuracy, these PET-derived ROIs were compared to the CT overlay for a close match.

[2] = system: integrin αvβ6-positive A431 xenografts; assay: Static small animal PET, integrin αvβ6-positive tumor model; assay type: in vivo, mouse; details: microPET 1 hr, individual mice, listed as Ro1-MG NODAGA Ga-68
[3] = system: integrin αvβ6-positive A431 xenografts; assay: as above; assay type: in vivo, mouse
Text: (§1) Eight planes were acquired in the coronal section.
(§2) Supplementary Figure 5. [18F]FP-R01-MG-F2 Static PET Imaging. (A) Representative PET images of nu/nu mice bearing in integrin αvβ6-positive A431 xenografts (left) and integrin αvβ6-negative 293 xenograft (right) models following injection of […] [18F]FP-R01-MG-F2. Location of tumor and kidneys are indicated by the letters T and K.

[4] = as above; assay type: in vivo, mouse; details: female, athymic nude (Nu/Nu), mouse, in vivo, iv, 100 uCi, total radioactivity, PET, 1 h p.i., average ± SD, n = 3
Text: as §1, §2

[5] = 49 min p.i., one patient, Fig 4C
[6] = 61 min p.i., one patient, Fig 4C
[7] = microPET 1 hr, individual mice, listed as Ro1-MG NODAGA Ga-68

CC[C@H](C)[C@@H]1NC(=O)[C@@H](NC(=O)CNC(=O)CCC(C(=O)O)N2CCN(CC(=O)O)CCN(CC(=O)O)CC2)CSSC[C@@H]2NC(=O)[C@H](C)NC(=O)CNC(=O)[C@@H]3CCCN3C(=O)[C@@H]3CSSC[C@@H](C(=O)NCC(N)=O)NC(=O)[C@H](Cc4ccc(O)cc4)NC(=O)CNC(=O)[C@H](CC(N)=O)NC(=O)CNC(=O)[C@H](CCCNC(=N)N)NC(=O)[C@H](CSSC[C@H](NC(=O)[C@H](CCCNC(=N)N)NC(=O)[C@H](Cc4ccccc4)NC(=O)[C@H](CC(C)C)NC(=O)[C@H](CC(C)C)NC(=O)[C@H]([C@@H](C)O)NC(=O)CNC(=O)[C@H](CC(C)C)NC(=O)[C@H](CC(=O)O)NC(=O)[C@H]([C@@H](C)O)NC(=O)[C@H](CCCNC(=N)N)NC(=O)CNC(=O)[C@H](CC(N)=O)NC(=O)[C@H](CC(C)C)NC1=O)C(=O)N[C@@H](CCCNC(=N)N)C(=O)N[C@@H](CCCNC(=N)N)C(=O)N[C@@H](CC(=O)O)C(=O)N[C@@H](CO)C(=O)N[C@@H](CC(=O)O)C(=O)N3)NC(=O)[C@H]([C@@H](C)CC)NC2=O (some centres unmarked) [[^68Ga]NODAGA-R01-MG, metal not drawn]
ROI uptake Bn (osteogenic cells) [1, 5]: 0.4088 | ROI uptake Br (brain) [1, 5]: 0.04004 | ROI uptake Brs (breast) [1, 5]: 0.5978 | ROI uptake HC (heart contents) [1, 5]: 0.5978 | ROI uptake HW (heart wall) [1, 5]: 0.3526 | ROI uptake LLI (lower large intestine) [1, 5]: 1.426 | ROI uptake Ln (lung) [1, 5]: 0.3066 | ROI uptake Lv (liver) [1, 5]: 0.6029 | ROI uptake Ms (muscle) [1, 5]: 0.7154 | ROI uptake Pn (pancreas) [1, 5]: 0.9657 | ROI uptake Pt (pituitary gland) [1, 5]: 2.212 | ROI uptake RM (red marrow) [1, 5]: 0.1942 | ROI uptake SI (small intestine) [1, 5]: 6.546 | ROI uptake Sk (skin) [1, 5]: 0.07665 | ROI uptake Sp (spleen) [1, 5]: 0.373 | ROI uptake St (stomach) [1, 5]: 2.34 | ROI uptake TB (total body) [1, 5]: 0.6949 | ROI uptake Tm (thymus) [1, 5]: 0.5876 | ROI uptake Tr (thyroid) [1, 5]: 0.5416 | ROI uptake ULI (upper large intestine) [1, 5]: 1.661 | ROI uptake Bl (bladder) [1, 6]: 9.011 | ROI uptake Bn (osteogenic cells) [1, 6]: 0.8028 | ROI uptake Br (brain) [1, 6]: 0.04398 | ROI uptake Brs (breast) [1, 6]: 0.7155 | ROI uptake HC (heart contents) [1, 6]: 0.5817 | ROI uptake HW (heart wall) [1, 6]: 0.3897 | ROI uptake LLI (lower large intestine) [1, 6]: 1.338 | ROI uptake Ln (lung) [1, 6]: 0.3258 | ROI uptake Lv (liver) [1, 6]: 0.6399 | ROI uptake Ms (muscle) [1, 6]: 0.9889 | ROI uptake Pn (pancreas) [1, 6]: 1.129 | ROI uptake Pt (pituitary gland) [1, 6]: 2.048 | ROI uptake RM (red marrow) [1, 6]: 0.07562 | ROI uptake SI (small intestine) [1, 6]: 6.597 | ROI uptake Sk (skin) [1, 6]: 0.1047 | ROI uptake Sp (spleen) [1, 6]: 0.4654 | ROI uptake St (stomach) [1, 6]: 2.513 | ROI uptake TB (total body) [1, 6]: 0.5643 | ROI uptake Tm (thymus) [1, 6]: 0.5119 | ROI uptake Tr (thyroid) [1, 6]: 0.4479 | ROI uptake ULI (upper large intestine) [1, 6]: 1.478 | Bl, PET uptake, Average ([1]; Average of patients, 29-60 min): 25.3728 | Bn, PET uptake, Average ([1]; Average of patients, 29-60 min): 0.4809 | Br, PET uptake, Average ([1]; Average of patients, 29-60 min): 0.09236 | Brs, PET uptake, Average ([1]; Average of patients, 29-60 min): 0.4271 | CA, PET uptake, Average ([1]; Average of patients, 29-60 min): 4.033 | HC, PET uptake, Average ([1]; Average of patients, 29-60 min): 0.8404 | HW, PET uptake, Average ([1]; Average of patients, 29-60 min): 0.6923 | LLI, PET uptake, Average ([1]; Average of patients, 29-60 min): 1.574 | Ln, PET uptake, Average ([1]; Average of patients, 29-60 min): 0.4315 | Lv, PET uptake, Average ([1]; Average of patients, 29-60 min): 0.7253 | Ms, PET uptake, Average ([1]; Average of patients, 29-60 min): 0.5597 | Pn, PET uptake, Average ([1]; Average of patients, 29-60 min): 1.617 | Pt, PET uptake, Average ([1]; Average of patients, 29-60 min): 3.247 | RM, PET uptake, Average ([1]; Average of patients, 29-60 min): 0.2168 | SI, PET uptake, Average ([1]; Average of patients, 29-60 min): 7.061 | Sk, PET uptake, Average ([1]; Average of patients, 29-60 min): 0.1123 | Sp, PET uptake, Average ([1]; Average of patients, 29-60 min): 0.4371 | St, PET uptake, Average ([1]; Average of patients, 29-60 min): 8.975 | TB, PET uptake, Average ([1]; Average of patients, 29-60 min): 0.841 | Tm, PET uptake, Average ([1]; Average of patients, 29-60 min): 0.6358 | Tr, PET uptake, Average ([1]; Average of patients, 29-60 min): 1.023 | ULI, PET uptake, Average ([1]; Average of patients, 29-60 min): 1.719 | adverse reactions ([1]; ~2 mCi i.v., ~1 h p.i., lasted about an hour, disappeared without treatment): One patient reported nausea and vertigo | Tumor avb6(+) ([2]; source data of Table 3): 3.142 and 2.463 and 2.614 and 2.906 | Liver [2]: 0.7389 and 1.216 and 1.257 and 1.6013 | Muscle ([3]; PET, 1 h p.i., average ± SD, n = 3): 0.6 ± 0.1 %ID g^−1 | Kidney [3, 7]: 34.6175 and 26.042 and 24.5731 and 34.9763 | Muscle [3, 7]: 0.5495 and 0.6119 and 0.4496 and 0.7461 | tissue uptake at 1 h ([4]; αvβ6 (+), read-out: Tumor): 2.78 ± 0.3 %ID/g | tissue uptake at 1 h ([4]; read-out: Kidney): 30.1 ± 5.51 %ID/g | tissue uptake at 1 h ([4]; read-out: Liver): 1.2 ± 0.35 %ID/g | tissue uptake at 1 h ([4]; read-out: Muscle): 0.589 ± 0.124 %ID/g | tissue to tissue ratio at 1 h ([4]; read-out: T:M Ratio (tumor-to-muscle)): 4.86 ± 1.04
